The values that follow come from article PMC12170345 (Nature Structural & Molecular Biology, 2025).

For series [1], the target named is T1, CCDC66 (full length, GFP- or mCherry-tagged) (human, UniProt A2RUB6 1-948).
T1 construct: CCDC66, human, full-length protein; source: HEK293T, transiently transfected; purified (StrepTactin beads) for in vitro assays; in lysate for coimmunoprecipitation; not shown: GFP or mCherry, N-terminal, kept
T1 sequence (looked up): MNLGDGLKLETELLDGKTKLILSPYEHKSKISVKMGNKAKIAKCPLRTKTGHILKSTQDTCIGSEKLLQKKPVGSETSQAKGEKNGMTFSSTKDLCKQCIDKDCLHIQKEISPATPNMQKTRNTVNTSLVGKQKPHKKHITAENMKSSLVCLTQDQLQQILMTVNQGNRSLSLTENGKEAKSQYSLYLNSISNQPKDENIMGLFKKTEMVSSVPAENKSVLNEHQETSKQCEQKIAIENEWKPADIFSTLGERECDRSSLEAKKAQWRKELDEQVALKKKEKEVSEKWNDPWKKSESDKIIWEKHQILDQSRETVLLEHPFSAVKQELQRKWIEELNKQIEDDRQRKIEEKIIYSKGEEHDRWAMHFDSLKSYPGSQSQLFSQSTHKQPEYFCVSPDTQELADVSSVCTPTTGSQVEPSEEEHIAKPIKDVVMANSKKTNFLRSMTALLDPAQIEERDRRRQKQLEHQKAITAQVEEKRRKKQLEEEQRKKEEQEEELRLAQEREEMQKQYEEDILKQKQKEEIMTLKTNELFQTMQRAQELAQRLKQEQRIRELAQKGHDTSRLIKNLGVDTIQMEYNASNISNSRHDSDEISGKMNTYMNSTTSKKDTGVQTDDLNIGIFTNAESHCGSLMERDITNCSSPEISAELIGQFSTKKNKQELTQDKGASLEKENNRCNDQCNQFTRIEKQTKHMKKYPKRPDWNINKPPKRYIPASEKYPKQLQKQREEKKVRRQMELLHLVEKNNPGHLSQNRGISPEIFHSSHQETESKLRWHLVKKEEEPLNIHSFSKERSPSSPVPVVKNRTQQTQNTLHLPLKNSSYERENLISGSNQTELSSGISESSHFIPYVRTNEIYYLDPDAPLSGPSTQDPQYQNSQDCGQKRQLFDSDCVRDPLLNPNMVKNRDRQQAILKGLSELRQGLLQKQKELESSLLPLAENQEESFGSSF
Kind of series: in vitro reconstitution on dynamic microtubules (TIRF microscopy); recruitment of one fluorescent protein to MTs by another that is on the MTs; 15 µM tubulin, with or without 20 nM EB3; MRB80, 50 mM KCl, 1 mM GTP, 30 °C. The following applies: both partners purified.

Series [2] deals with the molecule itself. Kind of series: single-molecule fluorescence intensity counting (TIRF microscopy); GFP-tagged protein diluted in PBS and immobilised on a plasma-cleaned coverslip; intensities compared with single GFP and GFP–EB3 dimers in adjacent chambers.
The target in series [3] is TOGARAM1 (mouse, full length, GFP- or mCherry-tagged) (mouse, UniProt Q6A070 1-1776). Kind of series: cell-based or functional assay.
TOGARAM1 (mouse, full length, GFP- or mCherry-tagged), sequence (Q6A070 whole entry): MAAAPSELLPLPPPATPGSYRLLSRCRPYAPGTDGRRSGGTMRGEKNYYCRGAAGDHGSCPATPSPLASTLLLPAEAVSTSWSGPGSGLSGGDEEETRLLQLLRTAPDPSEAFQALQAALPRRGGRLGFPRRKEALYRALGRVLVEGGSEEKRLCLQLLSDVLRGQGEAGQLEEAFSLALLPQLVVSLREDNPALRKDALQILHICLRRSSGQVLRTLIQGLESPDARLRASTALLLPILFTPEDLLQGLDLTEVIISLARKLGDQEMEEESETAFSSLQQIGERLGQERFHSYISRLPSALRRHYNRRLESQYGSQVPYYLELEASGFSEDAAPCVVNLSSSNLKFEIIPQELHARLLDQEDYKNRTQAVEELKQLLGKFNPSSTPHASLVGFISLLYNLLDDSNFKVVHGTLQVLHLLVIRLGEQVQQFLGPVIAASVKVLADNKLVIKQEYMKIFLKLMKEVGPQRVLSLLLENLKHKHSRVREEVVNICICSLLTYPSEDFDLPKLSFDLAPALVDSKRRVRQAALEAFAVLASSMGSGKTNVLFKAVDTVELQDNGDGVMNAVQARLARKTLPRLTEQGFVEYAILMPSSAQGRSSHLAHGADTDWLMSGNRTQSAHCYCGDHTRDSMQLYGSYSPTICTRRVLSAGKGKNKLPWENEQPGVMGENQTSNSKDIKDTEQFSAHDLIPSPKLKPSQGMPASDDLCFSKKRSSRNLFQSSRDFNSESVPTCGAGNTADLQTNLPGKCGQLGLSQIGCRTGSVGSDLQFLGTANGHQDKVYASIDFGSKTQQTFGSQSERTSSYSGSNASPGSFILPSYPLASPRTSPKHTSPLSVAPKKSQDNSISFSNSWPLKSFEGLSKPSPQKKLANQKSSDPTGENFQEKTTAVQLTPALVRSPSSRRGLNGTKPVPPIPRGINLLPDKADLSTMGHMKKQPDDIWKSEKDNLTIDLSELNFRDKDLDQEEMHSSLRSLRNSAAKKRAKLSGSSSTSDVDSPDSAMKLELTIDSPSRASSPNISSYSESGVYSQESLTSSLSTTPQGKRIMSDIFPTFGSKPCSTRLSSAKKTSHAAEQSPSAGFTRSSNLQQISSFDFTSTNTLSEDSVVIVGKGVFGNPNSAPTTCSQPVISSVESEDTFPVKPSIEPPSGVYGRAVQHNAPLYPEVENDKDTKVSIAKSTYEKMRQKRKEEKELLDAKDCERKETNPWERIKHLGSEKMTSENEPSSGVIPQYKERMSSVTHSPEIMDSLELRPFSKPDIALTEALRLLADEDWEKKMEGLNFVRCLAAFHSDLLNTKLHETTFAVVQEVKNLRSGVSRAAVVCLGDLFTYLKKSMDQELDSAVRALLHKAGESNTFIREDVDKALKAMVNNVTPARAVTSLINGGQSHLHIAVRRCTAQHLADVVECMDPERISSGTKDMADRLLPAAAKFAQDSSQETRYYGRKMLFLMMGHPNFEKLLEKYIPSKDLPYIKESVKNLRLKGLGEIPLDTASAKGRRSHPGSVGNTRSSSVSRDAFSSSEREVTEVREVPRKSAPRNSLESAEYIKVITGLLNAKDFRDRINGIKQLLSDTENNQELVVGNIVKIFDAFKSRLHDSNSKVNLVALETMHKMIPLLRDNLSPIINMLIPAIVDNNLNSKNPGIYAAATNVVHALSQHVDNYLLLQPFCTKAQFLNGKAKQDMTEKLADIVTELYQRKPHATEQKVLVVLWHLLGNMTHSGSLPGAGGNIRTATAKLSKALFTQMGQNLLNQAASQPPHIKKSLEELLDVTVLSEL

B1: CEP104 (full length, GFP- or mCherry-tagged) (natural protein, human, UniProt O60308 1-925, looked up)
chain: MPHKIGFVVVSSSGHEDGFSARELMIHAPTVSGWRSPRFCQFPQEIVLQMVERCRIRKLQLLAHQYMISSKIEFYISESLPEYFAPYQAERFRRLGYVSLCDNEKTGCKARELKSVYVDAVGQFLKLIFHQNHVNKYNIYNQVALVAINIIGDPADFSDESNTASREKLIDHYLGHNSEDPALEGTYARKSDYISPLDDLAFDMYQDPEVAQIIRKLDERKREAVQKERYDYAKKLKQAIADLQKVGERLGRYEVEKRCAVEKEDYDLAKEKKQQMEQYRAEVYEQLELHSLLDAELMRRPFDLPLQPLARSGSPCHQKPMPSLPQLEERGTENQFAEPFLQEKPSSYSLTISPQHSAVDPLLPATDPHPKINAESLPYDERPLPAIRKHYGEAVVEPEMSNADISDARRGGMLGEPEPLTEKALREASSAIDVLGETLVAEAYCKTWSYREDALLALSKKLMEMPVGTPKEDLKNTLRASVFLVRRAIKDIVTSVFQASLKLLKMIITQYIPKHKLSKLETAHCVERTIPVLLTRTGDSSARLRVTAANFIQEMALFKEVKSLQIIPSYLVQPLKANSSVHLAMSQMGLLARLLKDLGTGSSGFTIDNVMKFSVSALEHRVYEVRETAVRIILDMYRQHQASILEYLPPDDSNTRRNILYKTIFEGFAKIDGRATDAEMRARRKAATEEAEKQKKEEIKALQGQLAALKEIQAEVQEKESDAVKPKNQDIQGGKAAPAEALGIPDEHYLDNLCIFCGERSESFTEEGLDLHYWKHCLMLTRCDHCKQVVEISSLTEHLLTECDKKDGFGKCYRCSEAVFKEELPRHIKHKDCNPAKPEKLANRCPLCHENFSPGEEAWKAHLMGPAGCTMNLRKTHILQKAPALQPGKSSAVAASGPLGSKAGSKIPTPKGGLSKSSSRTYAKR
notes: CEP104, human, full-length protein; Cloned into pTT5-C1-based expression vectors (vector: Addgene 52355); Dimer by single-molecule counting; also called GFP–CEP104; mCherry–CEP104; source: HEK293T, transiently transfected; purified (StrepTactin beads) for in vitro assays; in lysate for coimmunoprecipitation; not shown: GFP or mCherry, N-terminal, kept
By stoichiometry N is commonly meant the number of molecules, sites or subunits per partner or assembly. For B1, the binding result in series [1] is “binds”. In series [2], the “stoichiometry N” value is 2.

B2: ARMC9 (full length, GFP- or mCherry-tagged) (natural protein, human, UniProt Q7Z3E5 1-818, looked up)
chain: MGDILAHESELLGLVKEYLDFAEFEDTLKTFSKECKIKGKPLCKTVGGSFRDSKSLTIQKDLVAAFDNGDQKVFFDLWEEHISSSIRDGDSFAQKLEFYLHIHFAIYLLKYSVGRPDKEELDEKISYFKTYLETKGAALSQTTEFLPFYALPFVPNPMVHPSFKELFQDSWTPELKLKLIKFLALISKASNTPKLLTIYKENGQSNKEILQQLHQQLVEAERRSVTYLKRYNKIQADYHNLIGVTAELVDSLEATVSGKMITPEYLQSVCVRLFSNQMRQSLAHSVDFTRPGTASTMLRASLAPVKLKDVPLLPSLDYEKLKKDLILGSDRLKAFLLQALRWRLTTSHPGEQRETVLQAYISNDLLDCYSHNQRSVLQLLHSTSDVVRQYMARLINAFASLAEGRLYLAQNTKVLQMLEGRLKEEDKDIITRENVLGALQKFSLRRPLQTAMIQDGLIFWLVDVLKDPDCLSDYTLEYSVALLMNLCLRSTGKNMCAKVAGLVLKVLSDLLGHENHEIQPYVNGALYSILSVPSIREEARAMGMEDILRCFIKEGNAEMIRQIEFIIKQLNSEELPDGVLESDDDEDEDDEEDHDIMEADLDKDELIQPQLGELSGEKLLTTEYLGIMTNTGKTRRKGLANVQWSGDEPLQRPVTPGGHRNGYPVVEDQHTPPQTAQHARNGHPQALPAAHEAVYREGKPSTPESCVSSSSAIIAKPGEWLPRGRQEEPRPAPTGTPRQPREAPQDPGNGVTTRECASAFTCKPRAPCTPEMLDWNPPKAKASVLAPLFSSCGPQQASRPGSTASSTRGLPSSQSHRK
notes: ARMC9, human, full-length protein; Dimer by single-molecule counting; multimers by SEC; also called GFP–ARMC9; GFP-ARMC9 FL; source: HEK293T, transiently transfected; purified (StrepTactin beads) for in vitro assays; in lysate for coimmunoprecipitation; not shown: GFP or mCherry, N-terminal, kept
B2: the “rescue activity of TOGARAM1 on MTs in the presence of ARMC9” value in series [3] is approximately 2 fold. Besides, the “stoichiometry N” value in series [2] came to 2.
